Biological target: T1, human factor VIII (human, UniProt P00451 20-2351)
T1 construct: also called FVIII
Experiment: Surface Plasmon Resonance

T1 sequence (P00451 20-2351 limits assumed): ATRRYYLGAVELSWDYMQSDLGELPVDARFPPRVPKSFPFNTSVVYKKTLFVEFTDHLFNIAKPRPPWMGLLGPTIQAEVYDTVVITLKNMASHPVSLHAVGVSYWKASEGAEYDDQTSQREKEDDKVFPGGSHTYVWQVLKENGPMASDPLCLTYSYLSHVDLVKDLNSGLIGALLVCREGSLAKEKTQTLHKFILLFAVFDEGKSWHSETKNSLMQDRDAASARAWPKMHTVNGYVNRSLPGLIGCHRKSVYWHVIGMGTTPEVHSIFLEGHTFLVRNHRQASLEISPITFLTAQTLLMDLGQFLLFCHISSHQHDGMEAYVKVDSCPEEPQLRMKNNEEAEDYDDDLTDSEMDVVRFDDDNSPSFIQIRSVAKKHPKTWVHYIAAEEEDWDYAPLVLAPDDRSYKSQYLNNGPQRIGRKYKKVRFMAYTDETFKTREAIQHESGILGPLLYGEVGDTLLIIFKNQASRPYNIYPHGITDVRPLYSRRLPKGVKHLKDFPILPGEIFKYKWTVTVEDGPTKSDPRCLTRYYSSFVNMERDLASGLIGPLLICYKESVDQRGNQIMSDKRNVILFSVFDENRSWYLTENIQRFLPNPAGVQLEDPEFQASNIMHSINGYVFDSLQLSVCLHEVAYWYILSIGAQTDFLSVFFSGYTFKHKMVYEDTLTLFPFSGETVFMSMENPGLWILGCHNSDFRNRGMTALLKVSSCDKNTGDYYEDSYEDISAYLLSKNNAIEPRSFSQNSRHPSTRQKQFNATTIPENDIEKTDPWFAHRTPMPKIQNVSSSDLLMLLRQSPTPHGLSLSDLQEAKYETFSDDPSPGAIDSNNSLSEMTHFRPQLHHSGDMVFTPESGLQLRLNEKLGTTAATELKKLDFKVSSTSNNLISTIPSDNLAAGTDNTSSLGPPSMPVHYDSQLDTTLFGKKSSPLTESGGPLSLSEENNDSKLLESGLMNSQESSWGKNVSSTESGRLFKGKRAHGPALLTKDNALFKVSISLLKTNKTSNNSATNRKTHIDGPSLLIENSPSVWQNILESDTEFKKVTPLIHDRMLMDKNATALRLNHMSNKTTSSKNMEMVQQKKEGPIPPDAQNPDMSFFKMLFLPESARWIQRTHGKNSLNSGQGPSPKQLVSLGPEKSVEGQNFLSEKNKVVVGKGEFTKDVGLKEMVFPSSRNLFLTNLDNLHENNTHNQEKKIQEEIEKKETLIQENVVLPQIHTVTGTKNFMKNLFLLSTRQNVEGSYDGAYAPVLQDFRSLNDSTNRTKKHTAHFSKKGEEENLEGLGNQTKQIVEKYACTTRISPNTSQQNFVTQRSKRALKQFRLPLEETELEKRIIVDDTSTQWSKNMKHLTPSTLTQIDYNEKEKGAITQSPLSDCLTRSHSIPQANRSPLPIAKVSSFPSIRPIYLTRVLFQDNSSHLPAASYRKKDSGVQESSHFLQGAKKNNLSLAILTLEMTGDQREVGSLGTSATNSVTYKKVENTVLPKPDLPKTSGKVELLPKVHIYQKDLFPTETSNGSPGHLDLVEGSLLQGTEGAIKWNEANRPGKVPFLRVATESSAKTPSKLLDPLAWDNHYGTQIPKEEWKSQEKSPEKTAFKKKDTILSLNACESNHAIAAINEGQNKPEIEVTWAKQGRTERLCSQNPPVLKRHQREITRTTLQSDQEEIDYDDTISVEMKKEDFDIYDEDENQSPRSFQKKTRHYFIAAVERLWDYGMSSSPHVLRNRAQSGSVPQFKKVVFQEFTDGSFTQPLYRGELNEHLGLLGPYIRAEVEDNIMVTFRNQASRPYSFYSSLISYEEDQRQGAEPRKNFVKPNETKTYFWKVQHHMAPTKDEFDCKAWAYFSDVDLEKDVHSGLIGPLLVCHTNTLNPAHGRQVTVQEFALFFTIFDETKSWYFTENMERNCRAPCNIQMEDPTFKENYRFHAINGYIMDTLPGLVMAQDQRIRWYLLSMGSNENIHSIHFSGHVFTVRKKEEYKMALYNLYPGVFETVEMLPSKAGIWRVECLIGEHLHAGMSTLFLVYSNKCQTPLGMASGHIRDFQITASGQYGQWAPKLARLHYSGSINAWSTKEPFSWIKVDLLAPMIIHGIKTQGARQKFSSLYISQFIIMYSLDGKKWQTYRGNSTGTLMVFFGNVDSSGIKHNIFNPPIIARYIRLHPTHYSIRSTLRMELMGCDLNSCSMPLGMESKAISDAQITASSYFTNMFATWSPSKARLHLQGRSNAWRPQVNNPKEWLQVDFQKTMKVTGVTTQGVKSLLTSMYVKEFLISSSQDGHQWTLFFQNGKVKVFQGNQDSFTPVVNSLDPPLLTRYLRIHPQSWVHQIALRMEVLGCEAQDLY

B1: human monoclonal antibody BO2C11 (antibody, V domains shown)
VH: QVQLVQSGAEVKKPGASVKVSCKVSGYTLTELPVHWVRQAPGKGLEWVGSFDPESGESIYAREFQGSVTMTADTSTDIAYMELSSLRSDDTAVYYCAVPDPDAFDIWGQGTMVTVSS
VL: EIALTQSPGTLSLSPGERATLSCRASQSFSSSYLAWYQQKPGQAPRLLIYGASTRATGIPDRFSGSGSGTDFTLTISRLEPEDFAVYYCQKYGTSAITFGQGTRLEIK
notes: also called B02C11
Work on B1 yielded a koff of at most 1e-05 s⁻¹.

— patent publication US20110010786A1 (published 2011)
